Test results reported in patent CN117866903A (BEILAI PHARMACEUTICAL CO LTD, dated 2024).

B1: 单域抗体1-C3 (Fc fusion)
chain: DVQLVESGGGLVEPGESLRLSCAAPGEDLGYYAIAWFRQAPGKEREVVSCVTSSGSSTNYLSSVKDRFTISIDNAKNTVYLQMNSLKPEDTAVYYCASTILLCSDYISAFGTWGQGTQVTVAS
notes: not shown: human IgG1 Fc of vector pcDNA3.4-hIgG1-Fc
B2: 单域抗体3-H10 (Fc fusion)
chain: EVQLVESGGGLVQPGGSLRLSCAASGFSIHIYAMGWYRQAPGKQRELVATITRGGVTNNADSVKGRFTISRDNAKNTAYLQMNSLKPEDTAVYYCNAGGTNGGYWGQGTQVTVSS
notes: as for B1
B3: 串联单域抗体1-C3-3-H10 (VHH-(GGGGS)3-VHH-IgG1 Fc) (Fc fusion)
chain: DVQLVESGGGLVEPGESLRLSCAAPGEDLGYYAIAWFRQAPGKEREVVSCVTSSGSSTNYLSSVKDRFTISIDNAKNTVYLQMNSLKPEDTAVYYCASTILLCSDYISAFGTWGQGTQVTVASGGGGSGGGGSGGGGSEVQLVESGGGLVQPGGSLRLSCAASGFSIHIYAMGWYRQAPGKQRELVATITRGGVTNNADSVKGRFTISRDNAKNTAYLQMNSLKPEDTAVYYCNAGGTNGGYWGQGTQVTVSS
notes: also called C3-H10; C3-H10重组蛋白; not shown: human IgG1 Fc
B4: 阳性对照抗体Ixekizumab (antibody, human IgG4 S228P, kappa, V domains shown)
VH: QVQLVQSGAEVKKPGSSVKVSCKASGYSFTDYHIHWVRQAPGQGLEWMGVINPMYGTTDYNQRFKGRVTITADESTSTAYMELSSLRSEDTAVYYCARYDYFTGTGVYWGQGTLVTVSS
VL: DIVMTQTPLSLSVTPGQPASISCRSSRSLVHSRGNTYLHWYLQKPGQSPQLLIYKVSNRFIGVPDRFSGSGSGTDFTLKISRVEAEDVGVYYCSQSTHLPFTFGQGTKLEIKR
notes: also called 阳性抗体; 依奇珠单抗

What was measured:
[1] = target: T1, Human IL-17A重组蛋白 (Gly 24-Ala 155, C端6×His) (human, biotinylated in the ELISA of paragraph 251 (Biotin-IL-17A-His)); assay: ELISA: antibody coated at 2 μg/mL, Biotin-IL-17A-His titrated from 10 μg/mL (5-fold, 7 points), HRP-streptavidin
[2] = target: T1, Human IL-17A重组蛋白 (Gly 24-Ala 155, …); assay: cell-based or functional assay
[3] = target: T1, Human IL-17A重组蛋白 (Gly 24-Ala 155, …); assay: BLI (ForteBio OCTET R2): IL-17A-His at 5 μg/mL on HIS1K sensor, antibody 50-3.13 nM, 25℃

T1 sequence (chain, as listed by the source): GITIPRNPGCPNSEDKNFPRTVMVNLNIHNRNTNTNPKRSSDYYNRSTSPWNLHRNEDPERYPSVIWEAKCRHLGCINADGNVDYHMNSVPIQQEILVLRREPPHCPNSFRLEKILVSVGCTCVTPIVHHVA

| Binder | EC50 [1] | 串联单域抗体阻断活性检测 (293F-IL-17RA-IL-17Rc-ACT1-NFκB-Luc报告基因细胞株), IC50 [2] | Kd [3] |
| --- | --- | --- | --- |
| B1 | 5.28 µg/mL | – | – |
| B2 | 1.22 µg/mL | – | – |
| B3 | 1.13 µg/mL | 0.63 nM | 1.32 nM |
| B4 | 10.1 µg/mL | 2.23 nM | 0.391 nM |
